# Values quoted from earlier work as cited in PMC11195831.
# Target: PD-1 (Homo sapiens) (UniProt Q15116)
# Assay: SPR
# Sequence of PD-1 (Homo sapiens) (Q15116 25-170): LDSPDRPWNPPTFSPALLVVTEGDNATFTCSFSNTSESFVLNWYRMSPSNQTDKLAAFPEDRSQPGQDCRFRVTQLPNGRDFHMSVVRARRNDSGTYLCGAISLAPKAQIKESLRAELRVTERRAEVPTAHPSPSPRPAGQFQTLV
row,Kd [nM],Substance
1,0.6,Retifanlimab
2,0.3,Dostarlimab
